Source: patent publication US20200261603A1 (published 2020)
Like-named read-outs stand apart in the source and are kept apart here.

B1: P10-1 Fab (Fab, V domains shown)
VH: QVQLVQSGAEVKKPGASVKVSCKASGYTFTNYGLSWVRQAPGQGLEWMGENHPGSGIIYHNEKFRGRVTLTADRSTSTAYMELSSLRSEDTAVYYCARSSGTRGFAYWGQGTLVTVSS
VL: DVVMTQTPLSLSVTPGQPASISCRSSQSIVHSNGNTYLEWYLQKPGQSPQLLIYRVSNRFSGVPDRFSGSGSGTDFTLKISRVEAEDVGVYYCFQGSHGPWTFGQGTKLEIKR
B2: P10-2 Fab Dye (Fab, V domains shown)
VH: QVQLVQSGAEVKKPGASVKVSCKASGYTFTNYGLSWVRQAPGQGLEWMGENHPGSGIIYHNEKFRGRVTLTADRSTSTAYMELSSLRSEDTAVYYCARSSGTRGFDYWGQGTLVTVSS
VL: DVVMTQTPLSLSVTPGQPASISCRSSQSIVHSNGNTYLEWYLQKPGQSPQLLIYRVSNRFSGVPDRFSGSGSGTDFTLKISRVEAEDVGVYYCFQGSHGPWTFGQGTKLEIKR
modifications: IRDye800CW (NHS ester) on Lys of the Fab fragment; number and positions not stated; IRDye800CW (NHS ester) on Lys of the Fab fragment; number and positions not stated; N-terminal glutamine largely pyroglutamic acid
B3: P10-2 Fab (Fab, V domains shown)
VH: QVQLVQSGAEVKKPGASVKVSCKASGYTFTNYGLSWVRQAPGQGLEWMGENHPGSGIIYHNEKFRGRVTLTADRSTSTAYMELSSLRSEDTAVYYCARSSGTRGFDYWGQGTLVTVSS
VL: DVVMTQTPLSLSVTPGQPASISCRSSQSIVHSNGNTYLEWYLQKPGQSPQLLIYRVSNRFSGVPDRFSGSGSGTDFTLKISRVEAEDVGVYYCFQGSHGPWTFGQGTKLEIKR
modifications: heavy chain N-terminal glutamine was modified into pyroglutamic acid in a great majority of purified antibodies
B4: P10-1 Fab Dye (Fab, V domains shown)
VH: QVQLVQSGAEVKKPGASVKVSCKASGYTFTNYGLSWVRQAPGQGLEWMGENHPGSGIIYHNEKFRGRVTLTADRSTSTAYMELSSLRSEDTAVYYCARSSGTRGFAYWGQGTLVTVSS
VL: DVVMTQTPLSLSVTPGQPASISCRSSQSIVHSNGNTYLEWYLQKPGQSPQLLIYRVSNRFSGVPDRFSGSGSGTDFTLKISRVEAEDVGVYYCFQGSHGPWTFGQGTKLEIKR
modifications: IRDye800CW (NHS ester) on Lys of the Fab fragment; number and positions not stated
B5: P10-2 Fab DFO (Fab, V domains shown)
VH: QVQLVQSGAEVKKPGASVKVSCKASGYTFTNYGLSWVRQAPGQGLEWMGENHPGSGIIYHNEKFRGRVTLTADRSTSTAYMELSSLRSEDTAVYYCARSSGTRGFDYWGQGTLVTVSS
VL: DVVMTQTPLSLSVTPGQPASISCRSSQSIVHSNGNTYLEWYLQKPGQSPQLLIYRVSNRFSGVPDRFSGSGSGTDFTLKISRVEAEDVGVYYCFQGSHGPWTFGQGTKLEIKR
modifications: p-SCN-Bn-deferoxamine on Lys of the Fab fragment; number and positions not stated; p-SCN-Bn-deferoxamine on Lys of the Fab fragment; number and positions not stated; N-terminal glutamine largely pyroglutamic acid

How the values were obtained:
[1] = biological target: T1, human cancer-specific MUC1 (human, UniProt P15941 24-1255, cancer-specific incomplete O-glycosylation (T, Tn, 2,3ST) of threonine at position 9 of the 20-amino acid tandem repeat … (SEQ ID NO: 15), as the background describes it); assay: Cell ELISA
[2] = biological target: T1, human cancer-specific MUC1; assay: Cell ELISA; remark: listed apart in the source

| Binder | Kd [1] | Kd [2] |
| --- | --- | --- |
| B1 | 0.35 nM |  |
| B2 | 0.49 nM |  |
| B3 | 0.29 nM | 0.37 nM |
| B4 | 0.66 nM |  |
| B5 |  | 0.36 nM |
